Earlier results on one substance are cited in patent publication US11033499B2, “Tablet formulation comprising a GLP-1 peptide and a delivery agent” (priority 2012, dated 2021).

A word on the Tmax: it is the time at which the peak concentration occurs.

For the data set the following is noted: published studies with SNAC and human GLP-1.

For “human GLP-1: human GLP-1 given with SNAC in published studies”, the time of peak concentration (Tmax) is 20 to 30 min.
